Data taken from the DeepSol protein solubility set.

experiment: soluble on expression in E. coli; label from the status in PepcDB or PDB records

Sequence	soluble on expression in E. coli
MAHHHHHHMRPTCVCAVRAVRMYVPMRVAATGGATPSAASPAGDNASTSSEVRAARRITEAVLSARAKHKLQHRQPSPPTPVPPSVRAKAKAPRSPASDIEEGVVKDTVTVEVQTAARLALSYGKSAFMTHLVHQHDDAHQRPGTVSASEWDQPMVSDAGEPEASVMTASSETCAVLPLRARTPTIPRAAAGTPGLQMAIDKWWRDLTDEARVRWITSTPQGRRALQHATKLAKFRNVSCGQGRSSNSGAHVVPSMESMLTKYKNTLAQPRLPRAAALAPSPKESILRMKLQDEKGASVSPSSKPTTVSSALAGMMHAASENNANRRLLRDRADAVRREEQRKLWHQALVQFLGGASAFTFVHDVKDLQQPRTEAEQAVKREPGAQSGGGAGRATTVAPNTPAATATGNATPEEMADDGAPVAFSDGLLDMCEGLGIRSPRRAYVLSRVLPEVDAANASEGPPLSLAEVQDLAKKCSTEYDELRDDAMRTARETGSASAEDAVRAFEREQLALAVARVQKKLVMFQENLPLLKRCVNVLSK	not soluble
MAHHHHHHMPPQRQCSHCEKEKAVLKRPRNGKLLCQRCFFNLFEAEVHETIMKEKLFKPGDIVACGASGGKDSTVLIHLMKLLNEQHEYGIQLLLLSIDEGIAGYRDDSLKTVHRNAEVYNLPLRVLSYKELYGWTMDEVVKVTGLRSSCTYCGVFRRQALDRGAAMLGATKVVTGHNADDLAETILMNILRGDLPRLSRCTSAITSGESLLPRVKPLKYAYEKEIVLYAHFKKLDYFTTECTYSKEAFRSEARTLLKNIEILQPRCILDTIRTGEQLRVKEQECATENPPSACTRCGYVTSQSLCRACVLLQGLNMNGPAVCVREQPQPQQQQQQQNVEVEGQ	not soluble
MAIPFFEEEHAPKSEPSGDQVDSPMAFSIDPGHDQVDFEGPPSAAEELPPPGATSEPVAPPSAEEQLLAWKFLAITMCKVLKQFYQQHKSSGKSSKLKATVQIQPQAQ	not soluble
MAELEKTFALIKPDAVRAGKAQEIMQLIELNGFTIIAKQKLQLTRARAEEFYGEHKGKEFFPKLVNFMTSGPIWALVLAKPGAILAWRALMGPTNVFKARAEQPKCLRALYGTDGTQNATHGSDSPISAAREIKFFFPTLSGDPTIYAEPTAAAEYITKRIQPALAKALAALAREKPSADKFEAITFVAGYLLQNNPNKPKVLMPDEWDPALMGDDEDDEADFINARLAAPTGNDGATKAEFDAMVEAAKADTGGAAPAQEFVYPDSKPTTPVVPAPPAPGSKPPSASGARPQSARPTSARPPSASAAPPAPLAPVPPPASSSRPASGSGRPPSATARPPSATPPPPPPAVELEEADDPAQLDEAATKVQAAFRGYQARKEVAVMRSEAQPGEAAAEPEQEAELQPEAEPEPQPEGEQEPQPQASASSSFLPDGVTEEMAAEAATRVQAHMRGHLARKQVAAIKAQQAAPAVAESSEALAEPEPQPEAEAEPQPQASVSSSFLPDGVTEEMAAEAATLVQAHMRGHLARKQVAAIKAQQAAPAVAESSEAQAEAEQTEAEAEPQPDAEAEAGAAEGEAEPEPEAAE	not soluble
MVSEAEFMAALAKFAETSATASAAADRVIAVANVDASRIADEFNALLGWAMKIATLLLEEISKNPSLKAEMAESHQMLFGNLGTIVPALLKFGPYINQILGNFGLSLGKLFGIVLAF	not soluble
MGALAELAGDEKNGEGSRTFVFTNEGHTLGNALKTIIARYPEVDFCGYTIPHPTEQKLHFRIQSRRDRAIDILKRGLEDLEGLCDHTIVTFEKEMAEFNAMKVENLEHHHHHH	not soluble
MNDQYHRAARDGYLELLKEATRKELNAPDEDGMTPTLWAAYHGNLESLRLIVSRGGDPDKCDIWGNTPLHLAASNGHLHCLSFLVSFGANIWCLDNDYHTPLDMAAMKGHMECVRYLDSIAAKQSSLNPKLVGKLKDKAFREAERRIRECAKLQRRHHERMERRYRRELAERSDTLSFSSLTSSTLSRRLQHLALGSHLPYSQATLHGTARGKTKMQKKLERRKQGGEGTFKVSEDGRKSARSLSGLQLGSDVMFVRQGTYANPKEWGRAPLRDMFLSDEDSVSRATLAAEPAHSEVSTDSGHDSLFTRPGLGTMVFRRNYLSSGLHGLGREDGGLDGVGAPRGRLQSSPSLDDDSLGSANSLQDRSCGEELPWDELDLGLDEDLEPETSPLETFLASLHMEDFAALLRQEKIDLEALMLCSDLDLRSISVPLGPRKKILGAVRRRRQAMERPPALEDTEL	soluble
MGSSHHHHHHSQDPMDYFNIKQNYYTGNFVQCLQEIEKFSKVTDNTLLFYKAKTLLALGQYQSQDPTSKLGKVLDLYVQFLDTKNIEELENLLKDKQNSPYELYLLATAQAILGDLDKSLETCVEGIDNDEAEGTTELLLLAIEVALLNNNVSTASTIFDNYTNAIEDTVSGDNEMILNLAESYIKFATNKETATSNFYYYEELSQTFPTWKTQLGLLNLHLQQRNIAEAQGIVELLLSDYYSVEQKENAVLYKPTFLANQITLALMQGLDTEDLTNQLVKLDHEHAFIKHHQEIDAKFDELVRKYDTSN	soluble
MDQPISVTLSSTTDPLWRSCHEYDNEMVITVNGRRIFPTLEYTVTGLDTFKLYSMCMHLDLVDDKKLRFTGGQWAESVSTEKKDPPRKVWHHNGSQTGKDWMLRNVSFDQIRITNRKSKEDGNASYVHLLTQHRYIPVLTIYEGDQLVHTARIPHSQFISVTAYHKGELNTLKTNNNPYSTGSRKDRRRERQSPVYSEGTSSEKSISPPPAKKIKDMAPALPDYSVISKPNLLQSLIFPMIAEQPSTSQSPPAPPVFPFNPDLQMQMLQPFMLPQFGFPCGFPSINPFMNPFLTPFTSMFPTPTVSPDGEGVKLEPEAFVEV	not soluble
MADANATICYLNGLSLHTINEVEKILLALPKKGDRCEVQMSKPLNRCIGRSTGDVIASRSVQIRDEPKPLSLSPQKSEQEIKKSSKSKKLSEDCCLRSIKERVEIVETRNGSDAFGAKKLQYKVLTDQVRVSPIVSCNGVTLELDVEVTIPDRDEKKKLKLEIDRTLSVLILSIRNH	not soluble
MSLIHSMTAFSRIQKQFDVGDFCWEIRSVNHRYLDVSFRLPESFRFLEAELRTLLRDKIHRGKLECHLKYKDTSCDNRSMLINIGTINALLDLSSKLSASHHLANDMTVSQVLSWPGVVEASLLDMEELSQIALELFQKSIDKLCEVRAGEGRSLKAYVEDRLQALRQEVMKSKSIVVSMSAKTKDKLLTRLHELQMDVPEARVEQEIALLLAKLDVSEELDRLETHIAEVSRTLNAEKVTGRRLDFLMQELNREANTLSSKSDSAELTLCAVEMKVLIEQMREQIQNFEEGHHHHHH	soluble
MGSDKIHHHHHHMSDLITLAQLSQGYRYNSDSLILADFILKQGIKGAVFDVGAGCGIIGILLKKNIANLSLSLIDIQKENIELIEKNLKSNKIQGDIFHDDFNQFQIIKKFDFIVCNPPFYRQGAYKSEDQHKAISKFQEFLPLHSFLAKTNSMLKPNGTLYFCYEALALDEICFILKDMKMKITKLCFVHTHQSKKARLVLIQVKKGSKSPCEILPPFFVYENEILSKQMQEIHLRFRLKSYDI	not soluble
MGSDKIHHHHHHMAVLVTRPDERGQQLVDMLAKAGVVAIHLPLFRIESGAELNELPNKFAKLKNGDYVFAVSKSAVDFAFKTLTATGFVWRHDLHYFTVGQGTAQYFTATTEMPVHYPTAQENSEGLLQLNAMQDLSDKTVLILRGNGGRELFAEQAQQRGANVEIVECYRREPIVYNNAEQTSICKRAGIQTIVVTSAEILTQLVDFVPQNEHNWLKSCQLITVSERIAHLAEALGWQNVVISPRADNQTLLQTLLQCR	not soluble
MTLSSKTTKKNTSQHKHPRYVDCDNCSMRAICQPIGADNQAIDLTSNYLTRRVEVSTEQSSSLPLNQSAGVALFEQASPLTAIFAVCSGTFKLCQKNDDGLDRIVGFRFPGELIGEDALFLEVYNYSAVALGDNSVCEVYVDSLSACSQLAPELQQNLIQLLTKQSYEQQRNAHAITGKKSADCLLAAFLLNICQRNAKHSGNETEIELTISRQDIASFLGMRRETLSRLLSKFQHEQLISLNGKQLSLLSLNHLKQLSNQ	not soluble
